Results on 6 molecules are retold here after patent US20250341526A1, “NOVEL DYES” (Quantum-Si Incorporated, priority 2024, published 2025).

A short description of data set [1]: Persistence of triplet state quenchers in solution. It is filed as physicochemical. An excerpt: FIGS. 11A-11B show the persistence of cyclooctatetraene (FIG. 11A) and COT-PEG3-sulfonate (triethylammonium salt) (FIG. 11B) in solution.
Cyclooctatetraene (COT)-based triplet state quenchers (TSQs) were used in place of or in addition to the currently used Trolox TSQ. TSQs can enhance photophysical properties of dyes in single-molecule studies, and the optimal TSQ can depend on the class of dye used. Trolox and COT quench triplet states by different mechanisms.
Water-soluble COT conjugates were made to improve solution stability of these TSQs (FIG. 11). The derivatives were made via various amide coupling reactions between COT-CO2H and the appropriate amine. COT-CO2H can be purchased or made in two steps from the parent COT compound.

For data set [2], the system named is amino acid at a terminal position of a polypeptide. To be noted: Table 2; amino acid at terminal position (phosphotyrosine also internal); inferred from literature and/or demonstrated by the inventors; cited from earlier work.

Take `C1=CC=CC=CC=C1` [unsubstituted COT, cyclooctatetraene]: in data set [1] (also in the presence of mineral oil), the “stability (persistence) in solution” value is “its concentration drops over time”. Also, the water solubility result in data set [1] (sequencing buffer) is given as “not fully water-soluble”.

B1: PS626: amino acid recognition protein, SEQ ID NO: 186 (protein, listed as Zygosaccharomyces parabailii)
chain: MYHVYKHSGRNCGRKFKVGEPIYRCHECGYDETCVLCIHCFNPKDHDSHHVYIDICSEFSTGICDCGDTEAFVNPLHCKAEED
For B1, the “Binding Pref.” value in data set [2] is on record as “K, R, H”.

B2: PS629: amino acid recognition protein, SEQ ID NO: 189 (protein, listed as Pichia pastoris)
chain: MCPNYKHHGRPCARQFKQGEPIYRCYECGFDETCVMCMHCFNREQHRDHEVSISIASSSNDGICDCGDPQAWNIELHCQSELD
Turning to B2, the “Binding Pref.” value in data set [2] is recorded as “K, R, H”.

B3: Escherichia coli leucyl/phenylalanyl-tRNA-protein transferase: amino acid recognition protein, SEQ ID NO: 111 (protein, listed as Escherichia coli)
chain: MRLVQLSRHSIAFPSPEGALREPNGLLALGGDLSPARLLMAYQRGIFPWFSPGDPILWWSPDPRAVLWPESLHISRSMKRFHKRSPYRVTMNYAFGQVIEGCASDREEGTWITRGVVEAYHRLHELGHAHSIEVWREDELVGGMYGVAQGTLFCGESMFSRMENASKTALLVFCEEFIGHGGKLIDCQVLNDHTASLGACEIPRRDYLNYLNQMRLGRLPNNFWVPRCLFSPQELE
On to B3, for which, in data set [2], the “Binding Pref.” value is “K, R”.

B4: PS627: amino acid recognition protein, SEQ ID NO: 187 (protein, listed as Zygosaccharomyces mellis)
chain: MPKYHQHSGRYCGRKFKVGEPIYRCHECGFDETCVICIHCFNAKDHETHHVSVSICSEYSTGICDCGDTEAFVNPLHCRAEEV
Regarding B4, in data set [2], the “Binding Pref.” value was “K, R, H”.

B5: PS628: amino acid recognition protein, SEQ ID NO: 188 (protein)
chain: MSHRAYHKNSPCGRIFRKGEPIHRCLTCGFDDTCALCSHCFQPEYHEGHKVHIGICQRENGGVCDCGDPEAWTQELFCPYAVD
modifications: Candida albicans
On to B5, for which the “Binding Pref.” value in data set [2] is listed as “K, R, H”.
